Data: patent US20250243240A1

Molecular target: Vascular endothelial growth factor (VEGF) (Homo sapiens (Human)) (UniProt P15692)

“Peak 1 fraction of hydrophobic interaction chromatography of purified aflibercept (pool or library)” gave a relative titer of 6.6%.
